Consider one molecule from PMC9129000, “RADA-dependent branch migration has a predominant role in plant mitochondria and its defect leads to mtDNA instability and cell cycle arrest”.

The target in the series is T1, RADA K201A (Arabidopsis thaliana, UniProt F4K8X8 49-627, K201A).
T1 sequence: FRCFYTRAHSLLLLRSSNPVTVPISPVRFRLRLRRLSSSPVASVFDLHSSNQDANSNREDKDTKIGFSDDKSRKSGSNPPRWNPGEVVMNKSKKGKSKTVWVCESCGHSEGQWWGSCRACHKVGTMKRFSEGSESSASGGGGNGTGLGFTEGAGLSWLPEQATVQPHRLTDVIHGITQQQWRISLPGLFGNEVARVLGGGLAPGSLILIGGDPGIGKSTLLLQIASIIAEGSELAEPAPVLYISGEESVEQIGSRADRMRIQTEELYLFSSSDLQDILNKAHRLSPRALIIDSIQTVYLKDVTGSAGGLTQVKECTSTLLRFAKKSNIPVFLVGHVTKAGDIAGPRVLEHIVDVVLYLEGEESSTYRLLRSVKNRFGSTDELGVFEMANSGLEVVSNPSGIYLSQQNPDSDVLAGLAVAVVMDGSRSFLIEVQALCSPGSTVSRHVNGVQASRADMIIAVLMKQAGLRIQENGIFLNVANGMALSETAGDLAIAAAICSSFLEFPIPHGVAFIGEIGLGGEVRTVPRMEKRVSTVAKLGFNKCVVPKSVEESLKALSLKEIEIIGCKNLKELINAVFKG
As to the kind of experiment: EMSA; affinity comparable to WT; 20 mM Tris-HCl pH 7.5, 50 mM KCl, 5 mM MgCl2, 0.5 mM EDTA, 10% glycerol, 1 mM DTT, protease inhibitors; 20 C, 20 min; 8 or 4.5% PAGE in TBE at 4 C. Conditions: protein: recombinant; tags: N-terminal His (pET28a); chain copies: 6; label: 5'-32P; single strand. A general note: In EMSA bound probe runs differently from free probe, usually more slowly.

B1: EMSA ssDNA (ssDNA)
DNA: GACGCTGCCGAATTCTACCAGTGCCTTGCTAGGACATCTTTGCCCACCTGCAGGTTCACCC
Take B1: the binding result was “binds”.
